US6541623

Target: Interleukin-1 receptor on human fibroblasts (NHDF, normal human dermal fibroblasts) (human)
Experiment: cell-based or functional assay

Chain of Interleukin-1 receptor on human fibroblasts (NHDF, normal human dermal fibroblasts) (human) (P14778 18-569): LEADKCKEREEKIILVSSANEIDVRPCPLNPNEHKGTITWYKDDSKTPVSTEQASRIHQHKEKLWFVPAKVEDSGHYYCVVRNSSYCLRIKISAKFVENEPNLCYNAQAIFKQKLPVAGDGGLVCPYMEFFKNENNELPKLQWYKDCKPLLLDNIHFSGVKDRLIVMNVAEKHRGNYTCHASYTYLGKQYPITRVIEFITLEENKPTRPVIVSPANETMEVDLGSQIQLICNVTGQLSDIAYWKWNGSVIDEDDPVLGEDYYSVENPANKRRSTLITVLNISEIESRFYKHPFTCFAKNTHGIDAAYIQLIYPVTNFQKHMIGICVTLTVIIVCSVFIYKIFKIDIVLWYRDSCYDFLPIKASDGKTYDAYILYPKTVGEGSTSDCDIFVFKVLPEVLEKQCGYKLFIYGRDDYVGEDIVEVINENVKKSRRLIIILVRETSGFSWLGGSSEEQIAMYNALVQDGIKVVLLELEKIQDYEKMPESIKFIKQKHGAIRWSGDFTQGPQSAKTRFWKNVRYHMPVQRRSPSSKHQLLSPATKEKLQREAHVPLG

- inhibition of IL-1β stimulated PGE2 production in CCD 1098 human fibroblast cells (PGE2 ELISA): 40 to 60 % inhibition
Substance: IL-1 Hy1 Receptor Antagonist, non-tagged / preparation not specified (from UniProt Q9UBH0 1-155) (ligand)
